Biological target: hemagglutinin (HA) of A/PuertoRico/8/34 (PR/8, H1N1) influenza virus (influenza A virus A/PuertoRico/8/34 (H1N1)) (UniProt P03452)
Assay: cell-based or functional assay

With EB peptide (entry blocker) the EC50 of hemagglutination inhibition (PR/8) was 2000 nM, the EC50 of hemagglutination inhibition (PR/8, 64 HAU) was 2600 nM and the plaque reduction on MDCK cells (PR/8 pre-treated with peptide) was 92%.

Reference: patent publication US20130190228A1
